Format in all cases: biochemical
The nature of test [1]: ω-transaminase activity assay, reverse direction, 7-aminoheptanoate to pimelate semialdehyde. The following applies: 10 mM 7-aminoheptanoate, 10 mM pyruvate, cell free extract, 25° C., 4 h; against empty vector control (FIG. 15). How it is done: (§1) A sequence encoding an N-terminal His-tag was added to the genes from Chromobacterium violaceum, Pseudomonas syringae, Rhodobacter sphaeroides, and Vibrio Fluvialis encoding the ω-transaminases of SEQ ID NOs: 8, 10, 11 and 13, respectively (see FIGS. 7F-7G) such that N-terminal HIS tagged ω-transaminases could be produced. Each of the resulting modified genes was cloned into a pET21a expression vector under control of the T7 promoter and each expression vector was transformed into a BL21[DE3] E. coli host. The resulting recombinant E. coli strains were cultivated at 37° C. in a 250 mL shake flask culture containing 50 mL LB media and antibiotic selection pressure, with shaking at 230 rpm. Each culture was induced overnight at 16° C. using 1 mM IPTG.
(§2) The pellet from each induced shake flask culture was harvested via centrifugation. Each pellet was resuspended and lysed via sonication. The cell debris was separated from the supernatant via centrifugation and the cell free extract was used immediately in enzyme activity assays.
Enzyme activity assays in the reverse direction (i.e., 7-aminoheptanoate to pimelate semialdehyde) were performed in a buffer composed of a final concentration of 50 mM HEPES buffer (pH=7.5), 10 mM 7-aminoheptanoate, 10 mM pyruvate and 100 μM pyridoxyl 5′ phosphate. Each enzyme activity assay reaction was initiated by adding cell free extract of the ω-transaminase gene product or the empty vector control to the assay buffer containing the 7-aminoheptanoate and incubated at 25° C. for 4 h, with shaking at 250 rpm. The formation of L-alanine from pyruvate was quantified via RP-HPLC.

Test [2] in a line: ω-transaminase activity assay, forward direction, pimelate semialdehyde to 7-aminoheptanoate. Particulars: for substrate acceptance, formation of pyruvate from L-alanine by RP-HPLC: 10 mM pimelate semialdehyde, 10 mM L-alanine, cell free extract, 25° C., 4 h, against empty vector control (FIG. 16); for reversibility of ω-transaminase activity: pimelate semialdehyde accepted, 7-aminoheptanoate synthesized: conclusion from the forward and reverse assays of Example 2. Here is the method:
as §1, §2
Enzyme activity in the forward direction (i.e., pimelate semialdehyde to 7-aminoheptanoate) was confirmed for the transaminases of SEQ ID NO 10, SEQ ID NO 11 and SEQ ID NO 13. Enzyme activity assays were performed in a buffer composed of a final concentration of 50 mM HEPES buffer (pH=7.5), 10 mM pimelate semialdehyde, 10 mM L-alanine and 100 μM pyridoxyl 5′ phosphate. Each enzyme activity assay reaction was initiated by adding a cell free extract of the ω-transaminase gene product or the empty vector control to the assay buffer containing the pimelate semialdehyde and incubated at 25° C. for 4 h, with shaking at 250 rpm. The formation of pyruvate was quantified via RP-HPLC.

A short description of test [3]: ω-transaminase activity assay, 7-aminoheptanol to 7-oxoheptanol. The following applies: for substrate acceptance, formation of L-alanine by RP-HPLC: 10 mM 7-aminoheptanol, 10 mM pyruvate, cell free extract, 25° C., 4 h, against empty vector control (FIG. 19); for acceptance of 7-oxoheptanol, forming 7-aminoheptanol, concluded from reversibility: concluded from the reverse direction assay and Example 2. How it is done:
A nucleotide sequence encoding an N-terminal His-tag was added to the Chromobacterium violaceum, Pseudomonas syringae and Rhodobacter sphaeroides genes encoding the ω-transaminases of SEQ ID NOs: 8, 10 and 11, respectively (see FIGS. 7F and 7G) such that N-terminal HIS tagged ω-transaminases could be produced. The modified genes were cloned into a pET21a expression vector under the T7 promoter.
Each expression vector was transformed into a BL21[DE3] E. coli host. Each resulting recombinant E. coli strain were cultivated at 37° C. in a 250 mL shake flask culture containing 50 mL LB media and antibiotic selection pressure, with shaking at 230 rpm. Each culture was induced overnight at 16° C. using 1 mM IPTG.
as §2
Enzyme activity assays in the reverse direction (i.e., 7-aminoheptanol to 7-oxoheptanol) were performed in a buffer composed of a final concentration of 50 mM HEPES buffer (pH=7.5), 10 mM 7-aminoheptanol, 10 mM pyruvate, and 100 μM pyridoxyl 5′ phosphate. Each enzyme activity assay reaction was initiated by adding cell free extract of the ω-transaminase gene product or the empty vector control to the assay buffer containing the 7-aminoheptanol and then incubated at 25° C. for 4 h, with shaking at 250 rpm. The formation of L-alanine was quantified via RP-HPLC.

Test [4] can be described thus: Carboxylate reductase activity assay, N7-acetyl-7-aminoheptanoate to N7-acetyl-7-aminoheptanal. The following applies: 2 mM N7-acetyl-7-aminoheptanoate, 1 mM ATP, 1 mM NADPH, enhanced by sfp gene product, room temperature, 20 min; against empty vector control (FIG. 12). How it is done:
The activity of each of the N-terminal His-tagged carboxylate reductases of SEQ ID NOs: 3, 6, and 7 (see Examples 4, and FIGS. 7B, 7E, and 7F) for converting N7-acetyl-7-aminoheptanoate to N7-acetyl-7-aminoheptanal was assayed in triplicate in a buffer composed of a final concentration of 50 mM HEPES buffer (pH=7.5), 2 mM N7-acetyl-7-aminoheptanoate, 10 mM MgCl2, 1 mM ATP, and 1 mM NADPH. The assays were initiated by adding purified carboxylate reductase and phosphopantetheine transferase or the empty vector control to the assay buffer containing the N7-acetyl-7-aminoheptanoate then incubated at room temperature for 20 min. The consumption of NADPH was monitored by absorbance at 340 nm.

As for “SEQ ID NO 11: Rhodobacter sphaeroides ω-transaminase (Genbank Accession No. ABA81135.1)”, in test [1], the “substrate acceptance, formation of L-alanine from pyruvate by RP-HPLC” value (“substrate acceptance … from pyruvate by RP-HPLC” for short) was “accepted 7-aminoheptanote as substrate”. Further, in test [2], the “substrate acceptance, formation of pyruvate from L-alanine by RP-HPLC” value (“substrate acceptance … from L-alanine by RP-HPLC” for short) is “accepted pimelate semialdehyde as substrate”; the “reversibility of ω-transaminase activity: pimelate semialdehyde accepted, 7-aminoheptanoate synthesized” value (shortened to “reversibility of ω-transaminase activity”) was “accepted pimelate semialdehyde as substrate and synthesized 7-aminoheptanoate as a reaction product”. Moreover, in test [3], the “substrate acceptance, formation of L-alanine by RP-HPLC” value is recorded as “accepted 7-aminoheptanol as substrate”; the “acceptance of 7-oxoheptanol, forming 7-aminoheptanol, concluded from reversibility” value (“acceptance of 7-oxoheptanol” below) was “accept 7-oxoheptanol as substrate and form 7-aminoheptanol”.

B1: SEQ ID NO 8: Chromobacterium violaceum ω-transaminase (Genbank Accession No. AAQ59697.1) (protein, listed as Chromobacterium violaceum)
chain: MQKQRTTSQWRELDAAHHLHPFTDTASLNQAGARVMTRGEGVYLWDSEGNKIIDGMAGLWCVNVGYGRKDFAEAARRQMEELPFYNTFFKTTHPAVVELSSLLAEVTPAGFDRVFYTNSGSESVDTMIRMVRRYWDVQGKPEKKTLIGRWNGYHGSTIGGASLGGMKYMHEQGDLPIPGMAHIEQPWWYKHGKDMTPDEFGVVAARWLEEKILEIGADKVAAFVGEPIQGAGGVIVPPATYWPEIERICRKYDVLLVADEVICGFGRTGEWFGHQHFGFQPDLFTAAKGLSSGYLPIGAVFVGKRVAEGLIAGGDFNHGFTYSGHPVCAAVAHANVAALRDEGIVQRVKDDIGPYMQKRWRETFSRFEHVDDVRGVGMVQAFTLVKNKAKRELFPDFGEIGTLCRDIFFRNNLIMRACGDHIVSAPPLVMTRAEVDEMLAVAERCLEEFEQTLKARGLA
For B1, the “substrate acceptance … from pyruvate by RP-HPLC” value in test [1] was “accepted 7-aminoheptanote as substrate”. Further, the “reversibility of ω-transaminase activity” value in test [2] was “accepted pimelate semialdehyde as substrate and synthesized 7-aminoheptanoate as a reaction product”. Further, in test [3], the “substrate acceptance, formation of L-alanine by RP-HPLC” value is given as “accepted 7-aminoheptanol as substrate”; the “acceptance of 7-oxoheptanol” value was “accept 7-oxoheptanol as substrate and form 7-aminoheptanol”.

B2: SEQ ID NO 3: Mycobacterium smegmatis carboxylate reductase (Genbank Accession No. ABK71854.1) (protein, listed as Mycobacterium smegmatis)
chain: MTSDVHDATDGVTETALDDEQSTRRIAELYATDPEFAAAAPLPAVVDAAHKPGLRLAEILQTLFTGYGDRPALGYRARELATDEGGRTVTRLLPRFDTLTYAQVWSRVQAVAAALRHNFAQPIYPGDAVATIGFASPDYLTLDLVCAYLGLVSVPLQHNAPVSRLAPILAEVEPRILTVSAEYLDLAVESVRDVNSVSQLVVFDHHPEVDDHRDALARAREQLAGKGIAVTTLDAIADEGAGLPAEPIYTADHDQRLAMILYTSGSTGAPKGAMYTEAMVARLWTMSFITGDPTPVINVNFMPLNHLGGRIPISTAVQNGGTSYFVPESDMSTLFEDLALVRPTELGLVPRVADMLYQHHLATVDRLVTQGADELTAEKQAGAELREQVLGGRVITGFVSTAPLAAEMRAFLDITLGAHIVDGYGLTETGAVTRDGVIVRPPVIDYKLIDVPELGYFSTDKPYPRGELLVRSQTLTPGYYKRPEVTASVFDRDGYYHTGDVMAETAPDHLVYVDRRNNVLKLAQGEFVAVANLEAVFSGAALVRQIFVYGNSERSFLLAVVVPTPEALEQYDPAALKAALADSLQRTARDAELQSYEVPADFIVETEPFSAANGLLSGVGKLLRPNLKDRYGQRLEQMYADIAATQANQLRELRRAAATQPVIDTLTQAAATILGTGSEVASDAHFTDLGGDSLSALTLSNLLSDFFGFEVPVGTIVNPATNLAQLAQHIEAQRTAGDRRPSFTTVHGADATEIRASELTLDKFIDAETLRAAPGLPKVTTEPRTVLLSGANGWLGRFLTLQWLERLAPVGGTLITIVRGRDDAAARARLTQAYDTDPELSRRFAELADRHLRVVAGDIGDPNLGLTPEIWHRLAAEVDLVVHPAALVNHVLPYRQLFGPNVVGTAEVIKLALTERIKPVTYLSTVSVAMGIPDFEEDGDIRTVSPVRPLDGGYANGYGNSKWAGEVLLREAHDLCGLPVATFRSDMILAHPRYRGQVNVPDMFTRLLLSLLITGVAPRSFYIGDGERPRAHYPGLTVDFVAEAVTTLGAQQREGYVSYDVMNPHDDGISLDVFVDWLIRAGHPIDRVDDYDDWVRRFETALTALPEKRRAQTVLPLLHAFRAPQAPLRGAPEPTEVFHAAVRTAKVGPGDIPHLDEALIDKYIRDLREFGLI
Regarding B2, the “substrate acceptance, consumption of NADPH by absorbance at 340 nm” value in test [4] is reported as “accepted N7-acetyl-7-aminoheptanoate as substrate”.

B3: SEQ ID NO 13: Vibrio fluvialis ω-transaminase (Genbank Accession No. AEA39183.1) (protein, listed as Vibrio fluvialis)
chain: MNKPQSWEARAETYSLYGFTDMPSLHQRGTVVVTHGEGPYIVDVNGRRYLDANSGLWNMVAGFDHKGLIDAAKAQYERFPGYHAFFGRMSDQTVMLSEKLVEVSPFDSGRVFYTNSGSEANDTMVKMLWFLHAAEGKPQKRKILTRWNAYHGVTAVSASMTGKPYNSVFGLPLPGFVHLTCPHYWRYGEEGETEEQFVARLARELEETIQREGADTIAGFFAEPVMGAGGVIPPAKGYFQAILPILRKYDIPVISDEVICGFGRTGNTWGCVTYDFTPDAIISSKNLTAGFFPMGAVILGPELSKRLETAIEAIEEFPHGFTASGHPVGCAIALKAIDVVMNEGLAENVRRLAPRFEERLKHIAERPNIGEYRGIGFMWALEAVKDKASKTPFDGNLSVSERIANTCTDLGLICRPLGQSVVLCPPFILTEAQMDEMFDKLEKALDKVFAEVA
For B3, in test [1], the “substrate acceptance … from pyruvate by RP-HPLC” value is listed as “accepted 7-aminoheptanote as substrate”. In test [2], the “substrate acceptance … from L-alanine by RP-HPLC” value is on record as “accepted pimelate semialdehyde as substrate”; the “reversibility of ω-transaminase activity” value is “accepted pimelate semialdehyde as substrate and synthesized 7-aminoheptanoate as a reaction product”.

B4: SEQ ID NO 10: Pseudomonas syringae ω-transaminase (Genbank Accession No. AAY39893.1) (protein, listed as Pseudomonas syringae)
chain: MSANNPQTLEWQALSSEHHLAPFSDYKQLKEKGPRIITRAEGVYLWDSEGNKILDGMSGLWCVAIGYGREELADAASKQMRELPYYNLFFQTAHPPVLELAKAISDIAPEGMNHVFFTGSGSEGNDTMLRMVRHYWALKGQPNKKTIISRVNGYHGSTVAGASLGGMTYMHEQGDLPIPGVVHIPQPYWFGEGGDMTPDEFGIWAAEQLEKKILELGVENVGAFIAEPIQGAGGVIVPPDSYWPKIKEILSRYDILFAADEVICGFGRTSEWFGSDFYGLRPDMMTIAKGLTSGYVPMGGLIVRDEIVAVLNEGGDFNHGFTYSGHPVAAAVALENIRILREEKIVERVRSETAPYLQKRLRELSDHPLVGEVRGVGLLGAIELVKDKTTRERYTDKGAGMICRTFCFDNGLIMRAVGDTMIIAPPLVISFAQIDELVEKARTCLDLTLAVLQG
B4: the “substrate acceptance … from pyruvate by RP-HPLC” value in test [1] is “accepted 7-aminoheptanote as substrate”. In addition, in test [2], the “substrate acceptance … from L-alanine by RP-HPLC” value is “accepted pimelate semialdehyde as substrate”; the “reversibility of ω-transaminase activity” value is “accepted pimelate semialdehyde as substrate and synthesized 7-aminoheptanoate as a reaction product”. For the same molecule, in test [3], the “substrate acceptance, formation of L-alanine by RP-HPLC” value is on record as “accepted 7-aminoheptanol as substrate”; the “acceptance of 7-oxoheptanol” value was “accept 7-oxoheptanol as substrate and form 7-aminoheptanol”.

(Values after patent US9738911B2, “Methods of producing 7-carbon chemicals via pyruvate and succinate semialdehyde aldol condensation” (INVISTA North America S.a r.l., priority 2012, dated 2017).)
